Measurements as given in patent US20150344570A1 (published 2015).

B1: GpH7-A5/GpH7-B3 variant I332_14T/GpL16-k0 (antibody, human IgG1, kappa)
heavy 1: not shown
heavy 2: not shown
light: DIVMTQSPLSLPVTPGEPASISCQASESLVHSNRNTYLHWYLQKPGQSPQLLIYKVSNRFSGVPDRFSGSGSGTDFTLKISRVEAEDVGVYYCSQNTHVPPTFGQGTKVEIERTVAAPSVFIFPPSDEQLKSGTASVVCLLNNFYPREAKVQWKVDNALQSGNSQESVTEQDSKDSTYSLSSTLTLSKADYEKHKVYACEVTHQGLSSPVTKSFNRGEC
notes: also called He Ab I332_14T
B2: GpH7-A5/GpH7-B3 variant K326_20W/GpL16-k0 (antibody, human IgG1, kappa)
heavy 1: not shown
heavy 2: not shown
light: B1 light
notes: also called He Ab K326_20W
B3: GpH7-A5/GpH7-B3 variant L234_20W/GpL16-k0 (antibody, human IgG1, kappa)
heavy 1: not shown
heavy 2: not shown
light: B1 light
notes: also called He Ab L234_20W
B4: GpH7-A5/GpH7-B3 variant N325_08L/GpL16-k0 (antibody, human IgG1, kappa)
heavy 1: not shown
heavy 2: not shown
light: B1 light
notes: also called He Ab N325_08L
B5: GpH7-A5/GpH7-B3 variant N325_13S/GpL16-k0 (antibody, human IgG1, kappa)
heavy 1: not shown
heavy 2: not shown
light: B1 light
notes: also called He Ab N325_13S
B6: GpH7-A5/GpH7-B3 variant P271_09D/GpL16-k0 (antibody, human IgG1, kappa)
heavy 1: not shown
heavy 2: not shown
light: B1 light
notes: also called He Ab P271_09D
B7: GpH7-A5/GpH7-B3 variant P331_06M/GpL16-k0 (antibody, human IgG1, kappa)
heavy 1: not shown
heavy 2: not shown
light: B1 light
notes: also called He Ab P331_06M
B8: GpH7-A5/GpH7-B3 variant L235_15Y/GpL16-k0 (antibody, human IgG1, kappa)
heavy 1: not shown
heavy 2: not shown
light: B1 light
notes: also called He Ab L235_15Y
B9: GpH7-A5/GpH7-B3 variant P238_15Y/GpL16-k0 (antibody, human IgG1, kappa)
heavy 1: not shown
heavy 2: not shown
light: B1 light
notes: also called He Ab P238_15Y
B10: GpH7-A5/GpH7-B3 variant L234_10E/GpL16-k0 (antibody, human IgG1, kappa)
heavy 1: not shown
heavy 2: not shown
light: B1 light
notes: also called He Ab L234_10E
B11: GpH7-A5/GpH7-B3 variant L234_09D/GpL16-k0 (antibody, human IgG1, kappa)
heavy 1: not shown
heavy 2: not shown
light: B1 light
notes: also called He Ab L234_09D
B12: GpH7-A5/GpH7-B3 variant S239_03V/GpL16-k0 (antibody, human IgG1, kappa)
heavy 1: not shown
heavy 2: not shown
light: B1 light
notes: also called He Ab S239_03V
B13: GpH7-A5/GpH7-B3 variant L235_09D/GpL16-k0 (antibody, human IgG1, kappa)
heavy 1: not shown
heavy 2: not shown
light: B1 light
notes: also called He Ab L235_09D
B14: GpH7-A5/GpH7-B3 variant P331_03V/GpL16-k0 (antibody, human IgG1, kappa)
heavy 1: not shown
heavy 2: not shown
light: B1 light
notes: also called He Ab P331_03V
B15: GpH7-A5/GpH7-B3 variant P238_09D/GpL16-k0 (antibody, human IgG1, kappa)
heavy 1: not shown
heavy 2: not shown
light: B1 light
notes: also called He Ab P238_09D
B16: GpH7-A5/GpH7-B3 variant S324_06M/GpL16-k0 (antibody, human IgG1, kappa)
heavy 1: not shown
heavy 2: not shown
light: B1 light
notes: also called He Ab S324_06M
B17: GpH7-A5/GpH7-B3 variant P238_19Q/GpL16-k0 (antibody, human IgG1, kappa)
heavy 1: not shown
heavy 2: not shown
light: B1 light
notes: also called He Ab P238_19Q
B18: GpH7-A5/GpH7-B3 variant P238_03V/GpL16-k0 (antibody, human IgG1, kappa)
heavy 1: not shown
heavy 2: not shown
light: B1 light
notes: also called He Ab P238_03V
B19: GpH7-A5/GpH7-B3 variant N325_01G/GpL16-k0 (antibody, human IgG1, kappa)
heavy 1: not shown
heavy 2: not shown
light: B1 light
notes: also called He Ab N325_01G
B20: GpH7-A5/GpH7-B3 variant H268_15Y/GpL16-k0 (antibody, human IgG1, kappa)
heavy 1: not shown
heavy 2: not shown
light: B1 light
notes: also called He Ab H268_15Y
B21: GpH7-A5/GpH7-B3 variant N325_03V/GpL16-k0 (antibody, human IgG1, kappa)
heavy 1: not shown
heavy 2: not shown
light: B1 light
notes: also called He Ab N325_03V
B22: GpH7-A5/GpH7-B3 variant H268_05P/GpL16-k0 (antibody, human IgG1, kappa)
heavy 1: not shown
heavy 2: not shown
light: B1 light
notes: also called He Ab H268_05P
B23: GpH7-A5/GpH7-B3 variant P238_16H/GpL16-k0 (antibody, human IgG1, kappa)
heavy 1: not shown
heavy 2: not shown
light: B1 light
notes: also called He Ab P238_16H
B24: GpH7-A5/GpH7-B3 variant N325_06M/GpL16-k0 (antibody, human IgG1, kappa)
heavy 1: not shown
heavy 2: not shown
light: B1 light
notes: also called He Ab N325_06M
B25: GpH7-A5/GpH7-B3 variant L328_02A/GpL16-k0 (antibody, human IgG1, kappa)
heavy 1: not shown
heavy 2: not shown
light: B1 light
notes: also called He Ab L328_02A
B26: GpH7-A5/GpH7-B3 variant N325_07I/GpL16-k0 (antibody, human IgG1, kappa)
heavy 1: not shown
heavy 2: not shown
light: B1 light
notes: also called He Ab N325_07I
B27: GpH7-A5/GpH7-B3 variant P271_10E/GpL16-k0 (antibody, human IgG1, kappa)
heavy 1: not shown
heavy 2: not shown
light: B1 light
notes: also called He Ab P271_10E
B28: GpH7-A5/GpH7-B3 variant S337_07I/GpL16-k0 (antibody, human IgG1, kappa)
heavy 1: not shown
heavy 2: not shown
light: B1 light
notes: also called He Ab S337_07I
B29: GpH7-A5/GpH7-B3 variant S298_06M/GpL16-k0 (antibody, human IgG1, kappa)
heavy 1: not shown
heavy 2: not shown
light: B1 light
notes: also called He Ab S298_06M
B30: GpH7-A5/GpH7-B3 variant I336_08L/GpL16-k0 (antibody, human IgG1, kappa)
heavy 1: not shown
heavy 2: not shown
light: B1 light
notes: also called He Ab I336_08L

Biological target: T1, FcγRIIb extracellular domain with C-terminal His tag (human, UniProt P31994 43-217)
T1 construct: extracellular domain; also called FcgRIIb; 2b
T1 sequence (looked up): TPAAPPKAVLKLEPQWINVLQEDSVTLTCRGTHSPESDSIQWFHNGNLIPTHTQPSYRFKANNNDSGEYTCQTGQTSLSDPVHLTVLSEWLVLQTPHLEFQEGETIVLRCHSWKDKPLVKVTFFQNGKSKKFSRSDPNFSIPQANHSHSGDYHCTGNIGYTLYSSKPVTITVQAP
Assay: SPR (Biacore), relative binding

Row | Binder | He/Con_2b
1 | B1 | 106 % of HeCon Ab GpH7-A5/GpH7-B3/GpL16-k0
2 | B2 | 148 % of HeCon Ab GpH7-A5/GpH7-B3/GpL16-k0
3 | B3 | 114 % of HeCon Ab GpH7-A5/GpH7-B3/GpL16-k0
4 | B4 | 197 % of HeCon Ab GpH7-A5/GpH7-B3/GpL16-k0
5 | B5 | 177 % of HeCon Ab GpH7-A5/GpH7-B3/GpL16-k0
6 | B6 | 120 % of HeCon Ab GpH7-A5/GpH7-B3/GpL16-k0
7 | B7 | 102 % of HeCon Ab GpH7-A5/GpH7-B3/GpL16-k0
8 | B8 | 149 % of HeCon Ab GpH7-A5/GpH7-B3/GpL16-k0
9 | B9 | 218 % of HeCon Ab GpH7-A5/GpH7-B3/GpL16-k0
10 | B10 | 118 % of HeCon Ab GpH7-A5/GpH7-B3/GpL16-k0
11 | B11 | 150 % of HeCon Ab GpH7-A5/GpH7-B3/GpL16-k0
12 | B12 | 108 % of HeCon Ab GpH7-A5/GpH7-B3/GpL16-k0
13 | B13 | 106 % of HeCon Ab GpH7-A5/GpH7-B3/GpL16-k0
14 | B14 | 119 % of HeCon Ab GpH7-A5/GpH7-B3/GpL16-k0
15 | B15 | 221 % of HeCon Ab GpH7-A5/GpH7-B3/GpL16-k0
16 | B16 | 112 % of HeCon Ab GpH7-A5/GpH7-B3/GpL16-k0
17 | B17 | 110 % of HeCon Ab GpH7-A5/GpH7-B3/GpL16-k0
18 | B18 | 120 % of HeCon Ab GpH7-A5/GpH7-B3/GpL16-k0
19 | B19 | 101 % of HeCon Ab GpH7-A5/GpH7-B3/GpL16-k0
20 | B20 | 106 % of HeCon Ab GpH7-A5/GpH7-B3/GpL16-k0
21 | B21 | 111 % of HeCon Ab GpH7-A5/GpH7-B3/GpL16-k0
22 | B22 | 116 % of HeCon Ab GpH7-A5/GpH7-B3/GpL16-k0
23 | B23 | 115 % of HeCon Ab GpH7-A5/GpH7-B3/GpL16-k0
24 | B24 | 217 % of HeCon Ab GpH7-A5/GpH7-B3/GpL16-k0
25 | B25 | 144 % of HeCon Ab GpH7-A5/GpH7-B3/GpL16-k0
26 | B26 | 171 % of HeCon Ab GpH7-A5/GpH7-B3/GpL16-k0
27 | B27 | 109 % of HeCon Ab GpH7-A5/GpH7-B3/GpL16-k0
28 | B28 | 104 % of HeCon Ab GpH7-A5/GpH7-B3/GpL16-k0
29 | B29 | 102 % of HeCon Ab GpH7-A5/GpH7-B3/GpL16-k0
30 | B30 | 107 % of HeCon Ab GpH7-A5/GpH7-B3/GpL16-k0
